From the RNAGym collection of RNA variant scans (doi:10.1073/pnas.2313332121)

B1: TPR t1 (parent)
chain: GACCAAUCUGCCCUCAGAGCUCGAGAACAUCUUCGGAUGCAGAGGAGGCAGGCUUCGGUGGCGCGAUAGCGCCAACGUCCUCAACCUCCAAUGCAUCCCACCACAUGAUGAUGCCUGAAGAGCCUUGGUUUUUUG

Variants of: B1
Experiment: polymerase ribozyme fitness, log enrichment relative to wild type (log ratio); higher = more active; in vitro selection for triplet polymerase activity
Procedure, shortened: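 Mutant libraries of each subunit of a heterodimeric triplet polymerase ribozyme were built by PCR and transcribed. Each library went through one round of in vitro selection in triplicate: annealing with biotinylated primer, partner subunit and triplets, frozen incubation at −7 °C, gel excision of extended constructs, streptavidin-bead capture and RT-PCR. Input and output libraries were Illumina-sequenced; only genotypes with ≥10 input reads and ≥1 read per output were kept. Fitness is log2(genotype enrichment/wild-type enrichment), using inverse-variance-weighted replicate averages.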

Variant | polymerase ribozyme fitness (log ratio)
U38A G48U C49A U87A C115A | -3.9
C12A G61U U109G | -7.2
C11U U55C G61A A121G | 1.39
C82A G110C | -3.97
A16U G52U U78C A111C U126G G127U | -3.36
C28U U59G C86G C89U | -4.05
U59G U112G G113A G120U | -4.31
U9A G48C C86A C101A C114U C124U | -2.84
G39A A46U C64U | -2.95
A37G C53A G57U | 0.602
G77A C88U | -0.0927
U54A C72A C73U A91C C115U U129A | -4.31
C115A U125G | 0.221
C72G C94G | -1.73
A2G U38G G42U C115U | -3.06
U9C C12A U21A C80A U87A G93U A121U U126G | -5.57
A50U C123U | 0.00244
A27U G44C C72U C104U | -4.18
A2U C12U U78C U87G U112G | -3.07
C114G U130A | -2.22
U81A A91C C97A A105G C123G | -8.06

Variant | polymerase ribozyme fitness (log ratio)
C28G G57A | -4.66
C56U C70A | -3.82
A6U C11G G48U C82G C85U | -0.874
C13U G19U G42U G60A G110U | -5.83
C12G G47U C94G G128A | -4.93
U21G U87G U133G | -3.13
U54A G110A C115G | -4.1
C20A U131G | -2.8
C76A C82U A95G C104G G120C | -5.79
G44U A90U G135U | -2.19
A27C U78C | -3.31
A2G C13G C82G U129C | -1.79
C12U A83C C114A C123G C124G | -0.26
U14A C88G C99U C123U U131G U134A | -3.82
G10A C13A U112A | 0.644
C8U C70G A111U | -6.19
G71C U87A | -2.35
U38G C70U C80U G120C | -1.36
C11G G39A G61A | -0.302
C12U G45C C104A G117A | -3.2
A29U U112A U131A | -1.03

Variant | polymerase ribozyme fitness (log ratio)
G48C C53G C64G G65A U109G | -6.8
A18U C49A | -2.29
C40A G61U U109G | -6.14
G52A A118U | 0.938
C12A C15A C73U C82U | -3.66
C123A U132A | 1.54
G35A A66G | -6.38
C62U A121C | 1.11
G17A C56G | -3.4
C8U C98U | -1.28
C3U G52U G57U C82A G122A | -3.12
C20A C53A U59A G69C | -4
C13A A18U G42U C123G | -0.827
G52A U54A G69U G77U C80G A83C A119U | -3.11
C15U U78C C79G C124G U131A | 0.897
G19U G42A | -3.15
C12A C70A C80U | -2.16
C13A G52U C53U | -3.61
C11A C124A | 1.26
C20A G122A C123G | -0.681
C86G U112C | -1.94

Variant | polymerase ribozyme fitness (log ratio)
G52U C56U U116A | -4.17
C4G C12A G45A G71U A100U U106A | -2.68
C11G A37G G69C C115G | -3.53
U7A C11U A27U A90C C98U | -7.09
A37U G52C G71A C115U U132C | -3.24
C40G A100U C101A | -3.4
U33G A37U C49A C115U U131G | -6.12
C40G G47U G71U | -6.34
U32G C70A G117A | -5.24
G93U G117C | -4.08
C11G C13U U32C A68G | -3.2
G63U C70U U129A | -1.48
C28U G93U U112C | -1.92
C8U G10A C124A | 2.42
A43G C124G | 0.268
C73G G93A | -1.13
C56U G65U C114U | -6.33
G57U C94A C98U C115U | -5.64
C56A U81A C102A | -3.37
A18U U67G C101G U116C | -5.12
U9G U78C C79G G110A | -2.65
